Patent US20220054955A1

Target: GST
Assay: photo-crosslinking of 7 mg/ml GST with 1 mM aziethyl glutathione (337 nm, 30 minutes), whole-protein LCMS

Substance: aziethyl glutathione
- percent of GST molecules covalently crosslinked: 40%
